Reference: patent US9717715B2, “Method of combination therapy using an anti-C-Met antibody” (SAMSUNG ELECTRONICS CO., LTD., dated 2017)

How the values were obtained:
[1] = biological target: c-Met on human cancer cells (human, UniProt P08581); assay: cell-based or functional assay
human c-Met protein [2] = biological target: T1, human c-Met protein (human, UniProt P08581); assay: SPR (Biacore), antibody immobilised on CM5 chip, human c-Met protein injected at 0.39-100 nM
human c-Met protein [3] = biological target: T1, human c-Met protein; assay: SPR (Biacore), by the method of Example 8

Binder | Akt phosphorylation (%) in Caki-1 cells, 5 ug/ml, 30 min [1] [%] | Kd (human c-Met protein [2]) [nM] | koff (human c-Met protein [2]) [s⁻¹] | kon (human c-Met protein [2]) [M⁻¹ s⁻¹] | Kd (human c-Met protein [3]) [nM] | relative cell viability (%) of MKN45 cells, 72 h [1] [%]
huAbF46-H4-A1 (U6-HC7) (antibody) heavy: not shown light: DIQMTQSPSSLSASVGDRVTITCKSSQSLLASGNQNNYLAWYQQKPGKAPKMLIIWASTRVSGVPSRFSGSGSGTDFTLTISSLQPEDFATYYCQQSYSRPYTFGQGTKVEIKRTVAAPSVFIFPPSDEQLKSGTASVVCLLNNFYPREAKVQWKVDNALQSGNSQESVTEQDSKDSTYSLSSTLTLSKADYEKHKVYACEVTHQGLSSPVTKSFNRGEC | ≤ 18 | – | – | – | – | ~60
huAbF46-H4-A1 (IgG2 Fc) (antibody) heavy: EVQLVESGGGLVQPGGSLRLSCAASGFTFTDYYMSWVRQAPGKGLEWLGFIRNKANGYTTEYSASVKGRFTISRDNSKNTLYLQMNSLRAEDTAVYYCARDNWFAYWGQGTLVTVSSASTKGPSVFPLAPCSRSTSESTAALGCLVKDYFPEPVTVSWNSGALTSGVHTFPAVLQSSGLYSLSSVVTVPSSNFGTQTYTCNVDHKPSNTKVDKTVERKCCVECPPCPAPPVAGPSVFLFPPKPKDTLMISRTPEVTCVVVDVSHEDPEVQFNWYVDGVEVHNAKTKPREEQFNSTFRVVSVLTVVHQDWLNGKEYKCKVSNKGLPAPIEKTISKTKGQPREPQVYTLPPSREEMTKNQVSLTCLVKGFYPSDIAVEWESNGQPENNYKTTPPMLDSDGSFFLYSKLTVDKSRWQQGNVFSCSVMHEALHNHYTQKSLSLSPGK light: DIQMTQSPSSLSASVGDRVTITCKSSQSLLASGNQNNYLAWYQQKPGKAPKMLIIWASTRVSGVPSRFSGSGSGTDFTLTISSLQPEDFATYYCQQSYSRPYTFGQGTKVEIKRTVAAPSVFIFPPSDEQLKSGTASVVCLLNNFYPREAKVQWKVDNALQSGNSQESVTEQDSKDSTYSLSSTLTLSKADYEKHKVYACEVTHQGLSSPVTKSFNRGEC | ≤ 18 | – | – | – | – | ~60
huAbF46-H4-A1 (IgG2 hinge) (antibody) heavy: not shown light: DIQMTQSPSSLSASVGDRVTITCKSSQSLLASGNQNNYLAWYQQKPGKAPKMLIIWASTRVSGVPSRFSGSGSGTDFTLTISSLQPEDFATYYCQQSYSRPYTFGQGTKVEIKRTVAAPSVFIFPPSDEQLKSGTASVVCLLNNFYPREAKVQWKVDNALQSGNSQESVTEQDSKDSTYSLSSTLTLSKADYEKHKVYACEVTHQGLSSPVTKSFNRGEC | ≤ 18 | – | – | – | – | ~60
huAbF46-H4-A1 (antibody, V domains shown) VH: EVQLVESGGGLVQPGGSLRLSCAASGFTFTDYYMSWVRQAPGKGLEWLGFIRNKANGYTTEYSASVKGRFTISRDNSKNTLYLQMNSLRAEDTAVYYCARDNWFAYWGQGTLVTVSS VL: DIQMTQSPSSLSASVGDRVTITCKSSQSLLASGNQNNYLAWHQQKPGKAPKMLIIWASTRVSGVPSRFSGSGSGTDFTLTISSLQPEDFATYYCQQSYSRPYTFGQGTKVEIKR | 15.3 | 0.06 | 4.53e-05 | 739000 | – | 74

Second part, led by results:

Akt phosphorylation (%) in Caki-1 cells, 5 ug/ml, 30 min [1] [%] | Kd (human c-Met protein [2]) [nM] | koff (human c-Met protein [2]) [s⁻¹] | kon (human c-Met protein [2]) [M⁻¹ s⁻¹] | Kd (human c-Met protein [3]) [nM] | Binder | relative cell viability (%) of MKN45 cells, 72 h [1] [%]
29.1 | 2.19 | 0.000723 | 329000 | – | humanized antibody huAbF46 (H4-heavy chain and H4-light chain) (antibody, V domains shown) VH: EVQLVESGGGLVQPGGSLRLSCAASGFTFTDYYMSWVRQAPGKGLEWLGFIRNKANGYTTEYSASVKGRFTISRDNSKNTLYLQMNSLRAEDTAVYYCARDNWFAYWGQGTLVTVSS VL: DIQMTQSPSSLSASVGDRVTITCKSSQSLLASGNQNNYLAWHQQKPGKAPKMLIIWASTRVSGVPSRFSGSGSGTDFTLTISSLQPEDFATYYCQQSYSAPLTFGQGTKVEIKR | 77
– | – | – | – | < 0.01 | L3-11Y (antibody, V domains shown) VH: EVQLVESGGGLVQPGGSLRLSCAASGFTFTDYYMSWVRQAPGKGLEWLGFIRNKANGYTTEYSASVKGRFTISRDNSKNTLYLQMNSLRAEDTAVYYCARDNWFAYWGQGTLVTVSS VL: DIQMTQSPSSLSASVGDRVTITCKSSQSLLAWGNQNNYLAWYQQKPGKAPKMLIIWASTRVSGVPSRFSGSGSGTDFTLTISSLQPEDFATYYCQQSYSRPYTFGQGTKVEIKR | –
